Experimental data from article PMC8091583 (FEBS Open Bio, 2021).
Residue numbers refer to the chain shown, from its start. Names may count otherwise.

B1: PYL3 V108K V107L (receptor)
chain: MNLAPIHDPSSSSTTTTSSSTPYGLTKDEFSTLDSIIRTHHTFPRSPNTCTSLIAHRVDAPAHAIWRFVRDFANPNKYKHFIKSCTIRVNGNGIKEIKVGTIREVSLKSGLPASTSVEILEVLDEEKRILSFRVLGGEHRLNNYRSVTSVNEFVVLEKDKKKRVYSVVLESYIVDIPQGNTEEDTRMFVDTVVKSNLQNLAVISTASPT
B2: PYL3 F81A (receptor)
chain: B1 chain with F81A, L107V, K108V
B3: PYL3 F188A (receptor)
chain: B1 chain with L107V, K108V, F188A
B4: PYL3 V108K V107L L111F (receptor)
chain: B1 chain with L111F
B5: BD-PYL3 V108K V107L V192F L111F (receptor)
chain: B1 chain with L111F, V192F
B6: wild-type PYL3 (6x His-tagged) (receptor, Arabidopsis thaliana, UniProt Q9SSM7 1-209, looked up)
chain: B1 chain with L107V, K108V
notes: PYL3 (pyrabactin resistance/Pyr1-like 3), Arabidopsis thaliana, subcloned from a cDNA library into pET-28a-tev; also called PYL3 WT; source: E. coli BL21(Rosseta), purified (Ni-charged resin, SEC Superdex-200)
B7: BD-PYL3 V108K V107F V192F (receptor)
chain: B1 chain with L107F, V192F
B8: BD-PYL3 V108K V107F V192F L111F (receptor)
chain: B1 chain with L107F, L111F, V192F
B9: BD-PYL3 V108K V107L V192F (receptor)
chain: B1 chain with V192F
B10: PYL3 V108K V107F (receptor)
chain: B1 chain with L107F
B11: PYL3 V108A (6x His-tagged) (receptor, Arabidopsis thaliana, UniProt Q9SSM7 1-209, looked up)
chain: B1 chain with L107V, K108A
notes: PYL3, Arabidopsis thaliana, in pET-28a-tev, site-directed mutant; Same limits as m1; source: E. coli BL21(Rosseta), purified (Ni-charged resin, SEC Superdex-200)
B12: PYL3 V108K V107L V192L L111F (receptor)
chain: B1 chain with L111F, V192L
B13: PYL3 V108K V107L V192L (receptor)
chain: B1 chain with V192L

Legend:
PYL3 with HAB1 [1] = molecular target: T1, PYL3 with HAB1 (Arabidopsis thaliana, UniProt Q9SSM7, F81A); experiment: HAB1 phosphatase assay (Promega V2460), phosphopeptide substrate; format: biochemical; details: read-out: % inhibition of HAB1 with 5 μM ABA
T1 construct: 6xHis-tagged PYL3 plus HAB1 (169-511), GST tag removed by TEV protease; both from E. coli; with Protein phosphatase 2C 16
T1 sequence (Q9SSM7 1-209 F81A): B1 chain with F81A, L107V, K108V
T1 sequence (Q9CAJ0 169-511 partner): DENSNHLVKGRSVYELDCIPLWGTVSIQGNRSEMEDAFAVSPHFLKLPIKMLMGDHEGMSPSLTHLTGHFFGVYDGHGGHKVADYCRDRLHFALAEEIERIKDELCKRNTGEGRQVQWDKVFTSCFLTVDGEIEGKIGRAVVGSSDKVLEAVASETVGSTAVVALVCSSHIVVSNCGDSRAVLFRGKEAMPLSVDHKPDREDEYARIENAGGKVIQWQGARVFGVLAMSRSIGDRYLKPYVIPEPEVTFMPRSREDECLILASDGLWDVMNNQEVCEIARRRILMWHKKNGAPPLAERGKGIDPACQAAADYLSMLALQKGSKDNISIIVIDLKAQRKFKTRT

PYL3 with HAB1 [2] = molecular target: T2, PYL3 with HAB1 (Arabidopsis thaliana, UniProt Q9SSM7, F188A); experiment: as above; format: biochemical; details: read-out: % inhibition of HAB1 with 5 μM ABA
T2 construct: 6xHis-tagged PYL3 plus HAB1 (169-511), GST tag removed by TEV protease; both from E. coli; with Protein phosphatase 2C 16
T2 sequence (Q9SSM7 1-209 F188A): B1 chain with L107V, K108V, F188A
T2 sequence (Q9CAJ0 169-511 partner): T1 sequence (Q9CAJ0 169-511 partner)

PYL3 with HAB1 [3] = molecular target: T3, PYL3 with HAB1 (Arabidopsis thaliana, UniProt Q9SSM7); experiment: as above; format: biochemical; details: HAB1 0.5 μM, PYL3 1 μM, ABA 5 μM, pH 7.5, 30 °C; ABA promotes inhibition of HAB1 by PYL3
T3 construct: 6xHis-tagged PYL3 plus HAB1 (169-511), GST tag removed by TEV protease; both from E. coli; with Protein phosphatase 2C 16
T3 sequence (Q9SSM7 1-209): B1 chain with L107V, K108V
T3 sequence (Q9CAJ0 169-511 partner): T1 sequence (Q9CAJ0 169-511 partner)

[4] = molecular target: AD-HAB1 (169-511) (Arabidopsis thaliana) (UniProt Q9CAJ0)
AD-HAB1 (169-511) (Arabidopsis thaliana), sequence (Q9CAJ0 whole entry): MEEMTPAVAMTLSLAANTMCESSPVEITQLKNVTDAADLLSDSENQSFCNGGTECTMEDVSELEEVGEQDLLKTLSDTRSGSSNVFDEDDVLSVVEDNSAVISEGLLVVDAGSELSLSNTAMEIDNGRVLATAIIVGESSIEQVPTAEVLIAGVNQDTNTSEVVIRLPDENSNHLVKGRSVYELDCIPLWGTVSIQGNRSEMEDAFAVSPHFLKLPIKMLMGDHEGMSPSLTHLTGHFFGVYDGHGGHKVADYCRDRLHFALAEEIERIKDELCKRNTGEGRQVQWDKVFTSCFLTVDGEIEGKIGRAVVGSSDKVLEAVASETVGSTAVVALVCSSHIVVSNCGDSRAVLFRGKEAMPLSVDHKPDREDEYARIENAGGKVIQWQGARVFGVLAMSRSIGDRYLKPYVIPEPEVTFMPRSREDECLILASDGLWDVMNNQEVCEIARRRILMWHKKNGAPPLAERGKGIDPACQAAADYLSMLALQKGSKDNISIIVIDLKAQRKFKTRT

[5] = molecular target: AD-HAB1 (169-511) (Arabidopsis thaliana) (UniProt Q9CAJ0); remark: listed apart in the source
[6] = molecular target: AD-HAB1 (169-511) (Arabidopsis thaliana) (UniProt Q9CAJ0); remark: listed apart in the source
[7] = molecular target: the molecule itself; experiment: cross-linking; EGS cross-linking gel assay: 20 μg 6x His-tagged PYL3 WT or mutant in PBS (pH 7.5, 150 mM NaCl), 100 μL, increasing EGS, 10 min at room temperature, stopped with Tris-glycine; 10% SDS/PAGE, Coomassie; self-association (dimer)

Row | Molecule | inhibition of HAB1 (0.5 μM) phosphatase activity by 1 μM PYL3 mutant, without ABA [5] | also measured
1 | CC1=CC(=O)CC(C)(C)[C@@]1(O)/C=C/C(C)=C\C(=O)O [ABA] | – | inhibition at 5 µM (PYL3 with HAB1 [1]): ~70%; inhibition at 5 µM (PYL3 with HAB1 [2]): ~70%; HAB1 phosphatase assay (Promega V2460), phosphopeptide substrate (PYL3 with HAB1 [3]): PYL3 could almost completely inhibit the activity of HAB1 in the presence of ABA
2 | B1 | 25% | inhibition of HAB1 phosphatase activity by the PYL3 mutant, without ABA (as retold in the discussion, Fig. 3) [4]: 20%
3 | B2 | – | inhibition of HAB1 (0.5 μM) phosphatase activity by 1 μM PYL3 mutant, with ABA (5 μM) [6]: 70%
4 | B3 | – | inhibition of HAB1 (0.5 μM) phosphatase activity by 1 μM PYL3 mutant, with ABA (5 μM) [6]: 70%
5 | B4 | 80% | –
6 | B5 | 92.5% | –
7 | B6 | – | stoichiometry N [7]: 2
8 | B7 | 90% | –
9 | B8 | 98% | –
10 | B9 | 87.5% | –
11 | B10 | 65% | inhibition of HAB1 phosphatase activity by the PYL3 mutant, without ABA (as retold in the discussion, Fig. 3) [4]: 40%
12 | B11 | – | stoichiometry N [7]: 2
13 | B12 | 85% | –
14 | B13 | 50% | –
